This note sets out measurements from publication PMC10514974, “The NAC transcription factor MdNAC4 positively regulates nitrogen deficiency-induced leaf senescence by enhancing ABA biosynthesis in apple”.

What all share (conditions): protein: recombinant; tags: GST (pGEX4T-1); label: biotin; blunt
The target in data set [1] is T1, MdNAC4-GST (apple, UniProt B6DXL4 1-350).
T1 sequence: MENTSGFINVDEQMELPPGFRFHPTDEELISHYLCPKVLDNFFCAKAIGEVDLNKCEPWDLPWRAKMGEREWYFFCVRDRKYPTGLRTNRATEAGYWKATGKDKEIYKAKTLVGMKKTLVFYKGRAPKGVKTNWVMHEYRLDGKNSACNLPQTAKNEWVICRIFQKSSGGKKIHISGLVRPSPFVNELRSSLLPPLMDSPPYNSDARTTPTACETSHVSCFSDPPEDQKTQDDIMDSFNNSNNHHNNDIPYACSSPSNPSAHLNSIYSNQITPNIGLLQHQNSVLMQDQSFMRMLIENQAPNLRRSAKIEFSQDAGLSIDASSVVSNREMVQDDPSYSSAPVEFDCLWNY
Nature of the data set: EMSA; unlabeled competitor 5x, 50x, 100x progressively abolished binding; LightShift binding buffer, 30 min at 24 °C in the dark; biotin-labeled probes; salt and pH not stated. Background: In EMSA bound probe runs differently from free probe, usually more slowly.

Data set [2] addresses T1, MdNAC4-GST. Nature of the data set: EMSA; LightShift binding buffer, 30 min at 24 °C in the dark; biotin-labeled probes; salt and pH not stated.
Data set [3] deals with T1, MdNAC4-GST. The data set can be described thus: EMSA; unlabeled competitor 5x, 50x, 100x abolished binding; LightShift binding buffer, 30 min at 24 °C in the dark; biotin-labeled probes; salt and pH not stated.

B1: MdNCED2 promoter probe P4 (ABRE) (dsDNA)
DNA 1: TAAATCCACCACGTGGTCTCTCATG
DNA 2: CATGAGAGACCACGTGGTGGATTTA
Regarding B1, the binding result with MdNAC4-GST [1] is on record as “binds”.

B2: MdNCED2 mutant probe (dsDNA)
DNA 1: TAAATCCACGACGGGGTCTCTCATG
DNA 2: CATGAGAGACCCCGTCGTGGATTTA
On to B2, for which, in the data set with MdNAC4-GST [2], the binding result was “no binding”.

B3: MdSAG39 promoter probe P2 (ABRE) (dsDNA)
DNA 1: TTTTGTAAGGCACGTACCACGCTGA
DNA 2: TCAGCGTGGTACGTGCCTTACAAAA
On to B3, for which the binding result with MdNAC4-GST [3] is on record as “binds”.

B4: MdSAG39 mutant probe (dsDNA)
DNA 1: TTTTGTAAGGGACGGACCACGCTGA
DNA 2: TCAGCGTGGTCCGTCCCTTACAAAA
B4: the binding result in the data set with MdNAC4-GST [2] is given as “no binding”.
